This experiment concerns the target T1, human CD19 (human, UniProt P15391 20-556).
T1 construct: whole, on cells; also called CD19 on Raji cells; CD19 on Ramos cells
T1 sequence (looked up): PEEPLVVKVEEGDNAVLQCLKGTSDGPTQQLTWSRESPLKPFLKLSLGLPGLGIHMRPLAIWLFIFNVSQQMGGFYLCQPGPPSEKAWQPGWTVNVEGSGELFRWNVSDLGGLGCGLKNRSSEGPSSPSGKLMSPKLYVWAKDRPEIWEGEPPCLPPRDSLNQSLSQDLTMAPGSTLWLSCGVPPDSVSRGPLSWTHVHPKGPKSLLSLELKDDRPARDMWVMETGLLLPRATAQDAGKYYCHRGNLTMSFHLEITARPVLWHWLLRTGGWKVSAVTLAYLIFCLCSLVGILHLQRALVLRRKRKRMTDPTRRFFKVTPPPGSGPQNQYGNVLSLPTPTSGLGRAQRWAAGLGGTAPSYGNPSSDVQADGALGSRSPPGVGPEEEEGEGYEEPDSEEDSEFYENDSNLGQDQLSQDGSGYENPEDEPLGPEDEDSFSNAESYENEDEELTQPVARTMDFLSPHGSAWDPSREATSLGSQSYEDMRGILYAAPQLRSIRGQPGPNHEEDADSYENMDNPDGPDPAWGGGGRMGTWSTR
Nature of the experiment: flow cytometry (FACS) on CD19-expressing Raji cells, 0.001 µg/ml construct, FITC goat anti-human IgG.Fc detection. On the procedure:
The assay was performed by incubating 1×10⁶CD19-expressing Raji cells with 0.001 μg/ml of each construct in PBS, 1% BSA on ice for 30 minutes, using anti-CD19 antibody (RB4v1.2), (scFv α CD19)-Fc-MBM-1 X 2 DOTA bundles and (scFv α CD19)-Fc-MBM-3 X 2 DOTA bundles as positive controls. The anti-HER2 antibody (trastuzumab) was used as a negative control. The staining of cells was analyzed by FACS (FACSCanto II; BD Biosciences) using FITC-conjugated goat anti-human IgG.Fc (diluted 1:200 in PBS/BSA) (Caltag, Buckingham, UK) at 4° C. for 20 minutes in the dark.
For orientation: In flow cytometry, cells or beads pass a laser one at a time.

B1: stabilized (scFv α CD19)-Fc-MBM-3 X 2 DOTA bundles (Fc fusion)
chain: EIVLTQSPAIMSASPGERVTMTCSASSGVNYMHWYQQKPGTSPRRWIYDTSKLASGVPARFSGSGSGTDYSLTISSMEPEDAATYYCHQRGSYTFGGGTKLEIKRGSTSGSGKPGSGEGSTKGQVQLVQPGAEVVKPGASVKLSCKTSGYTFTSNWMHWVKQAPGQGLEWIGEIDPSDSYTNYNQNFQGKAKLTVDKSTSTAYMEVSSLRSDDTAVYYCARGSNPYYYAMDYWGQGTSVTVSSGGGASDKTHTCPPCPAPELLGGPSVFLFPPKPKDTLMISRTPEVTCVVVDVSHEDPEVKFNWYVDGVEVHNAKTKPREEQYNSTYRVVSVLTVLHQDWLNGKDYKCKVSNKALPAPIEKTISKAKGQPREPQVYTLPPSRDELTRNQVSLTCLVKGFYPSDIAVEWESNGQPENNYKTTPPVLDSDGSFFLYSKLTVDKSRWQQGNVFSCSVMHEALHNHYTQKSLSLSPGGGGGCGGHA
modifications: cysteine residue of the C-terminal metal binding motif GCGGHA conjugated with one Mal-Peptide 2-DOTA bundle (three DOTA on a maleimido-ethyl peptide core)
notes: also called recombinant 2-chain (scFv α CD19)-Fc-MBM-3 X 2 DOTA bundles; 2-chain (VL-VH scFv α CD19)-Fc-MBM-3 conjugated with two DOTA bundles
On to B1, for which the binding result is “binds”.

For the origin of these results see patent US20200308223A1 (IMMUNWORK, published 2020).
